Measurements taken from the supplement of paper PMC9116672.
± gives the standard deviation of the averaged measurements or the uncertainty stated by the source.

How the values were obtained:
[1] = duplex formation enthalpy ΔH (Van't Hoff fit of HRM Tm); higher = less exothermic duplex formation; details: temperature for dG: 50 °C, NaCl: 500 mM (unadjusted)
Procedure: (§1)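 Duplex of the listed DNA strand with its complement, in 1x NNE buffer (500 mM NaCl, pH 7.0) with 1x EvaGreen. ΔH and ΔS come from a Van't Hoff linear fit of 1/Tm against ln(CT/4) over 1-20 uM, using HRM Tm values.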

[2] = duplex formation free energy ΔG50 (Van't Hoff fit of HRM Tm); higher = less stable duplex; details: temperature for dG: 50 °C, NaCl: 500 mM (unadjusted)
Procedure: as §1

[3] = duplex melting temperature (HRM, EvaGreen); higher = more stable duplex
Procedure: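 Listed DNA strand annealed 1:1 with its complementary strand (95 °C 5 min, 0.1 °C/s to 20 °C). Melted in 1x NNE buffer (500 mM NaCl, 10 mM Na2HPO4, 1 mM EDTA, pH 7.0) with 1x EvaGreen on a LightCycler96 (37 to 97 °C, 0.1 °C/s). Tm is the peak of -dF/dT at the stated total duplex concentration; 4 replicates are averaged. PS oligos are non-stereospecific (Rp/Sp mixtures).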

[4] = duplex formation entropy ΔS (Van't Hoff fit of HRM Tm); higher = smaller entropy loss on duplex formation; details: temperature for dG: 50 °C, NaCl: 500 mM (unadjusted)
Procedure: as §1

[5] = backbone: PO-PO (both strands phosphodiester DNA)
[6] = backbone: PS-PO (listed strand fully phosphorothioate, complement phosphodiester)
[7] = backbone: PS-PS (both strands fully phosphorothioate)
[8] = duplex concentration 1 µM, backbone: PO-PO (both strands phosphodiester DNA)
[9] = duplex concentration 1 µM, backbone: PS-PO (listed strand fully phosphorothioate, complement phosphodiester)
[10] = duplex concentration 1 µM, backbone: PS-PS (both strands fully phosphorothioate)
[11] = duplex concentration 2.5 µM, backbone: PO-PO (both strands phosphodiester DNA)
[12] = duplex concentration 2.5 µM, backbone: PS-PO (listed strand fully phosphorothioate, complement phosphodiester)
[13] = duplex concentration 2.5 µM, backbone: PS-PS (both strands fully phosphorothioate)
[14] = duplex concentration 5 µM, backbone: PO-PO (both strands phosphodiester DNA)
[15] = duplex concentration 5 µM, backbone: PS-PO (listed strand fully phosphorothioate, complement phosphodiester)
[16] = duplex concentration 5 µM, backbone: PS-PS (both strands fully phosphorothioate)
[17] = duplex concentration 7.5 µM, backbone: PO-PO (both strands phosphodiester DNA)
[18] = duplex concentration 7.5 µM, backbone: PS-PO (listed strand fully phosphorothioate, complement phosphodiester)
[19] = duplex concentration 7.5 µM, backbone: PS-PS (both strands fully phosphorothioate)
[20] = duplex concentration 10 µM, backbone: PO-PO (both strands phosphodiester DNA)
[21] = duplex concentration 10 µM, backbone: PS-PO (listed strand fully phosphorothioate, complement phosphodiester)
[22] = duplex concentration 10 µM, backbone: PS-PS (both strands fully phosphorothioate)
[23] = duplex concentration 15 µM, backbone: PO-PO (both strands phosphodiester DNA)
[24] = duplex concentration 15 µM, backbone: PS-PO (listed strand fully phosphorothioate, complement phosphodiester)
[25] = duplex concentration 15 µM, backbone: PS-PS (both strands fully phosphorothioate)
[26] = duplex concentration 20 µM, backbone: PO-PO (both strands phosphodiester DNA)
[27] = duplex concentration 20 µM, backbone: PS-PO (listed strand fully phosphorothioate, complement phosphodiester)
[28] = duplex concentration 20 µM, backbone: PS-PS (both strands fully phosphorothioate)

| Sequence | duplex formation enthalpy ΔH [1, 5] [kcal/mol] | duplex formation enthalpy ΔH [1, 6] [kcal/mol] | duplex formation enthalpy ΔH [1, 7] [kcal/mol] | duplex formation free energy ΔG50 [2, 5] [kcal/mol] | duplex formation free energy ΔG50 [2, 6] [kcal/mol] | duplex formation free energy ΔG50 [2, 7] [kcal/mol] | duplex melting temperature [3, 8] [°C] | duplex melting temperature [3, 9] [°C] | duplex melting temperature [3, 10] [°C] | duplex melting temperature [3, 11] [°C] | duplex melting temperature [3, 12] [°C] | duplex melting temperature [3, 13] [°C] | duplex melting temperature [3, 14] [°C] | duplex melting temperature [3, 15] [°C] | duplex melting temperature [3, 16] [°C] | duplex melting temperature [3, 17] [°C] | duplex melting temperature [3, 18] [°C] | duplex melting temperature [3, 19] [°C] | duplex melting temperature [3, 20] [°C] | duplex melting temperature [3, 21] [°C] | duplex melting temperature [3, 22] [°C] | duplex melting temperature [3, 23] [°C] | duplex melting temperature [3, 24] [°C] | duplex melting temperature [3, 25] [°C] | duplex melting temperature [3, 26] [°C] | duplex melting temperature [3, 27] [°C] | duplex melting temperature [3, 28] [°C] | duplex formation entropy ΔS [4, 5] [cal/mol/K] | duplex formation entropy ΔS [4, 6] [cal/mol/K] | duplex formation entropy ΔS [4, 7] [cal/mol/K] |
| --- | --- | --- | --- | --- | --- | --- | --- | --- | --- | --- | --- | --- | --- | --- | --- | --- | --- | --- | --- | --- | --- | --- | --- | --- | --- | --- | --- | --- | --- | --- |
| TAATTATACGAGTAGTTTCTGTCCTG | -127 ± 9.7 | -115 ± 4.5 | -89.9 ± 1.6 | -17.6 ± 0.68 | -13.9 ± 0.21 | -10.75 ± 0.039 | 71.48 ± 0.47 | 62.1 ± 1.3 | 53.5 ± 0.9 | 72.48 ± 0.47 | 63.7 ± 0.66 | 55.8 ± 0.57 | 73.57 ± 0.43 | 65.23 ± 0.59 | 57.27 ± 0.51 | 74.63 ± 0.29 | 65.94 ± 0.5 | 58.41 ± 0.21 | 75.37 ± 0.084 | 66.63 ± 0.26 | 59.23 ± 0.13 | 76.277 ± 0.049 | 67.43 ± 0.14 | 60.07 ± 0.12 | 77.05 ± 0.094 | 67.855 ± 0.049 | 60.84 ± 0.17 | -340 ± 28 | -312 ± 13 | -245 ± 4.8 |
| GAACCGTTGATGATCTC | -80.1 ± 1.6 | -78.8 ± 1.7 | -70.3 ± 2.3 | -12.78 ± 0.09 | -10.93 ± 0.053 | -9.101 ± 0.027 | 63.4 | 54.79 ± 0.14 | 46.68 ± 0.22 | 65.33 ± 0.31 | 57.31 ± 0.16 | 49.91 ± 0.24 | 67.16 ± 0.13 | 59.39 ± 0.12 | 51.98 ± 0.084 | 68.29 ± 0.098 | 60.41 ± 0.13 | 53.01 ± 0.082 | 69.2 ± 0.096 | 61.285 ± 0.052 | 53.86 ± 0.097 | 70.38 ± 0.088 | 62.38 ± 0.1 | 54.9 ± 0.045 | 71.31 ± 0.079 | 63.117 ± 0.054 | 55.75 ± 0.06 | -208 ± 4.8 | -210 ± 5 | -189 ± 7.2 |
| GCTGTGAAACAATGTAG | -82.5 ± 3.5 | -78.8 ± 1.9 | -82.8 ± 2.5 | -12.3 ± 0.16 | -10.46 ± 0.049 | -8.078 ± 0.024 | 60.4 ± 1.3 | 52.85 ± 0.06 | 43.66 ± 0.19 | 62.76 ± 0.31 | 55.41 ± 0.29 | 45.72 ± 0.19 | 64.54 ± 0.42 | 57.39 ± 0.24 | 47.54 ± 0.13 | 65.61 ± 0.42 | 58.44 ± 0.21 | 48.34 ± 0.13 | 66.58 ± 0.4 | 59.19 ± 0.24 | 49.09 ± 0.059 | 67.8 ± 0.33 | 60.21 ± 0.11 | 50.25 ± 0.24 | 68.65 ± 0.32 | 61.12 ± 0.092 | 51.09 ± 0.3 | -217 ± 10 | -211 ± 5.7 | -231 ± 7.8 |
| GTGAGCAGAAGGGGTT | -71 ± 3.3 | -71.4 ± 2 | -66.3 ± 3 | -12.7 ± 0.19 | -11.81 ± 0.093 | -10.06 ± 0.071 | 64.4 ± 0.57 | 59.41 ± 0.21 | 51.01 ± 0.18 | 66.59 ± 0.48 | 62.57 ± 0.13 | 54.75 ± 0.25 | 68.752 ± 0.066 | 64.68 ± 0.15 | 56.88 ± 0.17 | 70.17 ± 0.27 | 66 ± 0.37 | 58.06 ± 0.31 | 71.2 ± 0.18 | 66.75 ± 0.18 | 58.956 ± 0.043 | 72.73 ± 0.15 | 68.05 ± 0.21 | 60.17 ± 0.3 | 73.73 ± 0.092 | 69.05 ± 0.47 | 60.93 ± 0.33 | -180 ± 9.6 | -184 ± 6 | -174 ± 8.9 |
